T1: FcγRIIa R (human, UniProt P12318 34-217)
T1 construct: extracellular domain; also called FcgRIIa R type; 2aR
T1 sequence (looked up): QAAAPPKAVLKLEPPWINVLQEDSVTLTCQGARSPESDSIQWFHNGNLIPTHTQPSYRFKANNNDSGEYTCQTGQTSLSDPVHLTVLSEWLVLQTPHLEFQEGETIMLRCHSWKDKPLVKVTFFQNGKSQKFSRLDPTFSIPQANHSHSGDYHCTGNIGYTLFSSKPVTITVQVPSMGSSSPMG

T2: FcγRIIb extracellular domain with C-terminal His tag (human, UniProt P31994 43-217)
T2 construct: extracellular domain; also called FcgRIIb; 2b
T2 sequence (looked up): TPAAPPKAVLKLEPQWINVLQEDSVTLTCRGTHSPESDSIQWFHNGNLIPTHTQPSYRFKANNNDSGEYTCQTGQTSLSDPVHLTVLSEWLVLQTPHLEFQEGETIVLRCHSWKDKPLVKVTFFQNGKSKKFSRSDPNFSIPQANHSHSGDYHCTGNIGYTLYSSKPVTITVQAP

B1: GpH7-A5/GpH7-B3 variant P238_15Y/GpL16-k0 (antibody, human IgG1, kappa)
heavy 1: not shown
heavy 2: not shown
light: DIVMTQSPLSLPVTPGEPASISCQASESLVHSNRNTYLHWYLQKPGQSPQLLIYKVSNRFSGVPDRFSGSGSGTDFTLKISRVEAEDVGVYYCSQNTHVPPTFGQGTKVEIERTVAAPSVFIFPPSDEQLKSGTASVVCLLNNFYPREAKVQWKVDNALQSGNSQESVTEQDSKDSTYSLSSTLTLSKADYEKHKVYACEVTHQGLSSPVTKSFNRGEC
notes: also called He Ab P238_15Y
B2: GpH7-A5/GpH7-B3 variant P238_10E/GpL16-k0 (antibody, human IgG1, kappa)
heavy 1: not shown
heavy 2: not shown
light: B1 light
notes: also called He Ab P238_10E
B3: GpH7-A5/GpH7-B3 variant P331_04F/GpL16-k0 (antibody, human IgG1, kappa)
heavy 1: not shown
heavy 2: not shown
light: B1 light
notes: also called He Ab P331_04F
B4: GpH7-A5/GpH7-B3 variant P238_03V/GpL16-k0 (antibody, human IgG1, kappa)
heavy 1: not shown
heavy 2: not shown
light: B1 light
notes: also called He Ab P238_03V
B5: GpH7-A5/GpH7-B3 variant P271_08L/GpL16-k0 (antibody, human IgG1, kappa)
heavy 1: not shown
heavy 2: not shown
light: B1 light
notes: also called He Ab P271_08L
B6: GpH7-A5/GpH7-B3 variant P238_16H/GpL16-k0 (antibody, human IgG1, kappa)
heavy 1: not shown
heavy 2: not shown
light: B1 light
notes: also called He Ab P238_16H
B7: GpH7-A5/GpH7-B3 variant P271_10E/GpL16-k0 (antibody, human IgG1, kappa)
heavy 1: not shown
heavy 2: not shown
light: B1 light
notes: also called He Ab P271_10E
B8: GpH7-A5/GpH7-B3 variant P271_09D/GpL16-k0 (antibody, human IgG1, kappa)
heavy 1: not shown
heavy 2: not shown
light: B1 light
notes: also called He Ab P271_09D
B9: GpH7-A5/GpH7-B3 variant P238_04F/GpL16-k0 (antibody, human IgG1, kappa)
heavy 1: not shown
heavy 2: not shown
light: B1 light
notes: also called He Ab P238_04F
B10: GpH7-A5/GpH7-B3 variant P238_06M/GpL16-k0 (antibody, human IgG1, kappa)
heavy 1: not shown
heavy 2: not shown
light: B1 light
notes: also called He Ab P238_06M
B11: GpH7-A5/GpH7-B3 variant P238_19Q/GpL16-k0 (antibody, human IgG1, kappa)
heavy 1: not shown
heavy 2: not shown
light: B1 light
notes: also called He Ab P238_19Q
B12: GpH7-A5/GpH7-B3 variant P331_03V/GpL16-k0 (antibody, human IgG1, kappa)
heavy 1: not shown
heavy 2: not shown
light: B1 light
notes: also called He Ab P331_03V
B13: GpH7-A5/GpH7-B3 variant P238_20W/GpL16-k0 (antibody, human IgG1, kappa)
heavy 1: not shown
heavy 2: not shown
light: B1 light
notes: also called He Ab P238_20W
B14: GpH7-A5/GpH7-B3 variant P238_09D/GpL16-k0 (antibody, human IgG1, kappa)
heavy 1: not shown
heavy 2: not shown
light: B1 light
notes: also called He Ab P238_09D
B15: GpH7-A5/GpH7-B3 variant P331_02A/GpL16-k0 (antibody, human IgG1, kappa)
heavy 1: not shown
heavy 2: not shown
light: B1 light
notes: also called He Ab P331_02A
B16: GpH7-B3 variant G237_02A/GpL16-k0 (antibody, human IgG1, kappa)
heavy: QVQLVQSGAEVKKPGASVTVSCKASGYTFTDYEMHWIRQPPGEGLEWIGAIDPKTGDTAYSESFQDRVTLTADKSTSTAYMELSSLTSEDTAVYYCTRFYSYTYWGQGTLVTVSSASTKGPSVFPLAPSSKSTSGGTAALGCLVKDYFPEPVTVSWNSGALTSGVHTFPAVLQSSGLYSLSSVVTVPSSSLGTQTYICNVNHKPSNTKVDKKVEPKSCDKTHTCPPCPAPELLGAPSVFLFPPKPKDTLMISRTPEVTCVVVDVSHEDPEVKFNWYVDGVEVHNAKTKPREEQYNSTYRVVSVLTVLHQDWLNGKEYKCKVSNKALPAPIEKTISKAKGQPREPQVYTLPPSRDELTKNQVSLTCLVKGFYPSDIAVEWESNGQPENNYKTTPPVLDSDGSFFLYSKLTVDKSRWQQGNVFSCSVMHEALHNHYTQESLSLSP
light: B1 light
notes: also called Ho Ab G237_02A
B17: GpH7-B3 variant G237_08L/GpL16-k0 (antibody, human IgG1, kappa)
heavy: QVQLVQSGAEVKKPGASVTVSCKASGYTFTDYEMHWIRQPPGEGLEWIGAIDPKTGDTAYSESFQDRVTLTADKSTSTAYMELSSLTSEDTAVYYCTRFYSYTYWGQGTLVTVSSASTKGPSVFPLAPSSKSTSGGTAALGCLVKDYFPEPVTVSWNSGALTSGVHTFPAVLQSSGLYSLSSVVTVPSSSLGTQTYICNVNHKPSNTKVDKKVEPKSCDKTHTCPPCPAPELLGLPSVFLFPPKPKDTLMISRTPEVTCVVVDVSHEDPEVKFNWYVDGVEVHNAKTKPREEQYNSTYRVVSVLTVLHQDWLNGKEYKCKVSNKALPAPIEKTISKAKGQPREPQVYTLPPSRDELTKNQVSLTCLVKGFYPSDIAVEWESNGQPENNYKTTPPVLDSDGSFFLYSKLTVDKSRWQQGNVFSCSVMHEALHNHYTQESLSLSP
light: B1 light
notes: also called Ho Ab G237_08L
B18: GpH7-B3 variant H268_05P/GpL16-k0 (antibody, human IgG1, kappa)
heavy: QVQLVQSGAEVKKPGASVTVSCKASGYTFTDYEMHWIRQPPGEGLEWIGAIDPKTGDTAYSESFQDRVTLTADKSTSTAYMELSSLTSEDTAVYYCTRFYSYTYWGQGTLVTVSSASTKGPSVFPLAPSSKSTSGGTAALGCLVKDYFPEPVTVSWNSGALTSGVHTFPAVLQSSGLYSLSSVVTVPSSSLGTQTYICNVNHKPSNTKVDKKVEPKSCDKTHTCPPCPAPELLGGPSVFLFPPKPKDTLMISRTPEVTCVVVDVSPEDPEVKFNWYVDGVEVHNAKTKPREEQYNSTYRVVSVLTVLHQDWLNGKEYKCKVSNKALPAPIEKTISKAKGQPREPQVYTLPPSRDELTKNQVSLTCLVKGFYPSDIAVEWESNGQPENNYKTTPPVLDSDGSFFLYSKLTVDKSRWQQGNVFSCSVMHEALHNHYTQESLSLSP
light: B1 light
notes: also called Ho Ab H268_05P
B19: GpH7-B3 variant N325_04F/GpL16-k0 (antibody, human IgG1, kappa)
heavy: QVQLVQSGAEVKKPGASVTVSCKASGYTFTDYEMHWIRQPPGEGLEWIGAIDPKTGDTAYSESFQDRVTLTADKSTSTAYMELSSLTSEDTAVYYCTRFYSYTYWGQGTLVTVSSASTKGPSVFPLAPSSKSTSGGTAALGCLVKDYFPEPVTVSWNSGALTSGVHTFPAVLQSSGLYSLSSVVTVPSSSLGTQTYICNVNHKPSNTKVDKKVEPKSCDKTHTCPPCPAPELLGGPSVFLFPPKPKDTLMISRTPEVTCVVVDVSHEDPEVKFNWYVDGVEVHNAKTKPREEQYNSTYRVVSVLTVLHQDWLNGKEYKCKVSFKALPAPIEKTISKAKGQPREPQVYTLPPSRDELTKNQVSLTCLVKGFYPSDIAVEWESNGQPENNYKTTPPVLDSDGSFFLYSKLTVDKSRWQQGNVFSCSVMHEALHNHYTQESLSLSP
light: B1 light
notes: also called Ho Ab N325_04F
B20: GpH7-B3 variant G237_19Q/GpL16-k0 (antibody, human IgG1, kappa)
heavy: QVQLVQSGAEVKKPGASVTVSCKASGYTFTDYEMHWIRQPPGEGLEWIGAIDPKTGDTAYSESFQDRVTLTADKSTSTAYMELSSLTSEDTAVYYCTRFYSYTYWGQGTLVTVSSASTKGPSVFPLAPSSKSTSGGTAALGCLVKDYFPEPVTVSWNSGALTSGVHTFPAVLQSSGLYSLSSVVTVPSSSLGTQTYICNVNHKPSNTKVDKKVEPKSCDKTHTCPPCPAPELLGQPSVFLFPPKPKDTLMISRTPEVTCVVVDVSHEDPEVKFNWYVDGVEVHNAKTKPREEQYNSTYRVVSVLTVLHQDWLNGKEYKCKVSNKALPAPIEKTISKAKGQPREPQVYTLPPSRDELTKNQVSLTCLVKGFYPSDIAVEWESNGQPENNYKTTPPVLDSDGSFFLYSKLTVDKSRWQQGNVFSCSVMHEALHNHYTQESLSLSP
light: B1 light
notes: also called Ho Ab G237_19Q
B21: GpH7-B3 variant A327_07I/GpL16-k0 (antibody, human IgG1, kappa)
heavy: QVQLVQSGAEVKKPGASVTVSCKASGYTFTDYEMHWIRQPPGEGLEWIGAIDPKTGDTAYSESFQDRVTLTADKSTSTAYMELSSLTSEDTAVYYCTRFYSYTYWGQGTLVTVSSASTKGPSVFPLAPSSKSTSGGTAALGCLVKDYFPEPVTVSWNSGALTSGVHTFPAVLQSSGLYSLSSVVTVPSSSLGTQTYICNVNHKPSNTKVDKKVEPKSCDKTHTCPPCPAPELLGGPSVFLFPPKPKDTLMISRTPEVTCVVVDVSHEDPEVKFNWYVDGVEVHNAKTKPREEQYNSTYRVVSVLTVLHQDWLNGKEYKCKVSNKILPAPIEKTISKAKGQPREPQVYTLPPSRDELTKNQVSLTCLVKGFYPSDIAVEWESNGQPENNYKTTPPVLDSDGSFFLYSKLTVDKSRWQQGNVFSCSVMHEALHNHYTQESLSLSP
light: B1 light
notes: also called Ho Ab A327_07I
B22: GpH7-B3 variant I332_02A/GpL16-k0 (antibody, human IgG1, kappa)
heavy: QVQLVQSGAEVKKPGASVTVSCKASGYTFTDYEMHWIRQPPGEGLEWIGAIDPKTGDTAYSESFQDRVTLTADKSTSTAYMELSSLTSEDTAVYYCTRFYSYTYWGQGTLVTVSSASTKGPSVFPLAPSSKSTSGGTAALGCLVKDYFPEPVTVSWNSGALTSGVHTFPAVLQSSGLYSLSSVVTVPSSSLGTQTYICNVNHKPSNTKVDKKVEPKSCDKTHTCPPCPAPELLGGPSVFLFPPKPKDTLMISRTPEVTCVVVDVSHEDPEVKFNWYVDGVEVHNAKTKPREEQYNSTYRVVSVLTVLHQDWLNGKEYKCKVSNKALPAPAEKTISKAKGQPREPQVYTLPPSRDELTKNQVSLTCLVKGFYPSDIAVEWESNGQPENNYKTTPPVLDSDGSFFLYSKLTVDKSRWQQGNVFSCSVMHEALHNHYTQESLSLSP
light: B1 light
notes: also called Ho Ab I332_02A
B23: GpH7-B3 variant K326_08L/GpL16-k0 (antibody, human IgG1, kappa)
heavy: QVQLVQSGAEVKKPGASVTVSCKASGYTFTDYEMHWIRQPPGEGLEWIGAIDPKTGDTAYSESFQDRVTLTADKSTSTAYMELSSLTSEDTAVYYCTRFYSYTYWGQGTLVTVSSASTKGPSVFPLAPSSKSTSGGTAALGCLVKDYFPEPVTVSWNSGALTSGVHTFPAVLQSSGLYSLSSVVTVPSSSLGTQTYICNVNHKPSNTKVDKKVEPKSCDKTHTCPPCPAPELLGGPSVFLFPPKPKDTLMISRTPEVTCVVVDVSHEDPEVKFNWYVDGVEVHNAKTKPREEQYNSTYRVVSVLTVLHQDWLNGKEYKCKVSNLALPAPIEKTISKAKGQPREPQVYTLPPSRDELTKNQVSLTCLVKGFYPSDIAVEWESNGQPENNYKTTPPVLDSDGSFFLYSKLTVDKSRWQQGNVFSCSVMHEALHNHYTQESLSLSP
light: B1 light
notes: also called Ho Ab K326_08L
B24: GpH7-B3 variant L328_09D/GpL16-k0 (antibody, human IgG1, kappa)
heavy: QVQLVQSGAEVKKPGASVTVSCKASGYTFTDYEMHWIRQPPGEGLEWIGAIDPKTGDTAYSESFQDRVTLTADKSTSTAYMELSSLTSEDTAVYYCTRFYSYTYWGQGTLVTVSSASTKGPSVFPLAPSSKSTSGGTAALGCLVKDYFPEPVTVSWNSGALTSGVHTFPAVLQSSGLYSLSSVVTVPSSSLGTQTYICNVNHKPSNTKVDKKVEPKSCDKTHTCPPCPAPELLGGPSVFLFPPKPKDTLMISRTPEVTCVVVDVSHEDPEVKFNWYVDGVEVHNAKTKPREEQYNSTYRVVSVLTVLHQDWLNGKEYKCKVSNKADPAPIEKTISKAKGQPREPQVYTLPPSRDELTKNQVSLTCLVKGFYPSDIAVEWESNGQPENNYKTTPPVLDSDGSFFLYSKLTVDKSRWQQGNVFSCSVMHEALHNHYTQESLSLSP
light: B1 light
notes: also called Ho Ab L328_09D
B25: GpH7-B3 variant L234_20W/GpL16-k0 (antibody, human IgG1, kappa)
heavy: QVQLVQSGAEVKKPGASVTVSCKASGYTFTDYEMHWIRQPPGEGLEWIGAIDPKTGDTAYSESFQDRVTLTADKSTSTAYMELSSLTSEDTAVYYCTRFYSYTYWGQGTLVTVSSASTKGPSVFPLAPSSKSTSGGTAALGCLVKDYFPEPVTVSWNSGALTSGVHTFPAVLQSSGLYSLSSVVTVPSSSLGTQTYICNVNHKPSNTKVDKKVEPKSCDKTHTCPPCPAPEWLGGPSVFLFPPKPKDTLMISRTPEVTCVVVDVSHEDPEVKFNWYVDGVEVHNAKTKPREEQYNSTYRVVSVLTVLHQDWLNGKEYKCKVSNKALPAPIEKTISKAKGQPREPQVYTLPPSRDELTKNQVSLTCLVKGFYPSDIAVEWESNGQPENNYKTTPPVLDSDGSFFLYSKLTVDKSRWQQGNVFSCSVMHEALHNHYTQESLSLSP
light: B1 light
notes: also called Ho Ab L234_20W
B26: GpH7-B3 variant H268_15Y/GpL16-k0 (antibody, human IgG1, kappa)
heavy: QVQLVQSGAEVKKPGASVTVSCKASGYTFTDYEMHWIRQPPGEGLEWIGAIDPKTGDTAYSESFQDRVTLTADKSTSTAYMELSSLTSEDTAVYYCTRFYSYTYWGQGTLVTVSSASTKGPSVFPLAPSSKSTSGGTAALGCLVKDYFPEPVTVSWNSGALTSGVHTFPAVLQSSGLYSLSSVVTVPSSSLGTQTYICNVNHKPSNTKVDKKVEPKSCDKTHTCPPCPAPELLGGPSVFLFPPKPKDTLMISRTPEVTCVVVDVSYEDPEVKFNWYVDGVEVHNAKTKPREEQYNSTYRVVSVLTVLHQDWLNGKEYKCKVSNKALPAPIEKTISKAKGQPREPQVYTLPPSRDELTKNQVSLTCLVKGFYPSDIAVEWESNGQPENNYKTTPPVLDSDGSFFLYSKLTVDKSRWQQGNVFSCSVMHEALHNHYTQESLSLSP
light: B1 light
notes: also called Ho Ab H268_15Y
B27: GpH7-B3 variant G237_15Y/GpL16-k0 (antibody, human IgG1, kappa)
heavy: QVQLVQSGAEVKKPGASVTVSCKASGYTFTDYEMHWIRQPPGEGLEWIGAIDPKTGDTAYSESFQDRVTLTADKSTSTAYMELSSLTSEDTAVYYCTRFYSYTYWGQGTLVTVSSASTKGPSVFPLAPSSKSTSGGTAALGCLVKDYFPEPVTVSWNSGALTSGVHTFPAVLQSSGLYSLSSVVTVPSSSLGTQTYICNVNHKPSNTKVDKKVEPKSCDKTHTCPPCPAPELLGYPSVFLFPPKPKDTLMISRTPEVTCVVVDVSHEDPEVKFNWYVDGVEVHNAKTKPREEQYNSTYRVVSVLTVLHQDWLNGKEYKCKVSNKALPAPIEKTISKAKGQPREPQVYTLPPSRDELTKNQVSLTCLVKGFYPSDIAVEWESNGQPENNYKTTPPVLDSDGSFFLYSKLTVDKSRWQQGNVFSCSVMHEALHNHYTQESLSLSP
light: B1 light
notes: also called Ho Ab G237_15Y

What follows are binders tested against T1, FcγRIIa R (assay: SPR (Biacore), captured antibody, FcγR as analyte; relative binding activity).

He/Con_2aR	Binder
156 % (GpH7-A5/GpH7-B3/GpL16-k0 = 100)	B1
151 % (GpH7-A5/GpH7-B3/GpL16-k0 = 100)	B2
111 % (GpH7-A5/GpH7-B3/GpL16-k0 = 100)	B3
120 % (GpH7-A5/GpH7-B3/GpL16-k0 = 100)	B4
104 % (GpH7-A5/GpH7-B3/GpL16-k0 = 100)	B5
122 % (GpH7-A5/GpH7-B3/GpL16-k0 = 100)	B6
103 % (GpH7-A5/GpH7-B3/GpL16-k0 = 100)	B7
110 % (GpH7-A5/GpH7-B3/GpL16-k0 = 100)	B8
174 % (GpH7-A5/GpH7-B3/GpL16-k0 = 100)	B9
139 % (GpH7-A5/GpH7-B3/GpL16-k0 = 100)	B10
104 % (GpH7-A5/GpH7-B3/GpL16-k0 = 100)	B11
114 % (GpH7-A5/GpH7-B3/GpL16-k0 = 100)	B12
117 % (GpH7-A5/GpH7-B3/GpL16-k0 = 100)	B13
148 % (GpH7-A5/GpH7-B3/GpL16-k0 = 100)	B14
106 % (GpH7-A5/GpH7-B3/GpL16-k0 = 100)	B15

The binders below were run against T2, FcγRIIb extracellular domain with … (assay: SPR (Biacore), relative binding).
Protocol: Analysis of interaction between objective antibody and the FcγR was carried out using Biacore T100 (GE Healthcare). HBS-EP+ (GE Healthcare) was used as the running buffer, and the measurement temperature was set to 25° C. Chips produced by immobilizing the antigen peptide by the amine coupling method to a Series S Sencor Chip CM5 (GE Healthcare), or alternatively, chips produced by allowing preliminarily biotinylated antigen peptides to interact with and immobilize onto a Series S Sensor Chip SA (certified) (GE Healthcare) were used. Antibodies of interest were captured onto an antigen peptide-immobilized chip, and allowed to interact to each FcγR diluted with running buffer. To regenerate and repeatedly use the chip, the antibodies captured on the chip were washed off by reacting 10 mM glycine-HCl, pH 1.5.

Ho/Con_2b	Binder
47.8 % of HoCon Ab GpH7-B3/GpL16-k0	B16
49.4 % of HoCon Ab GpH7-B3/GpL16-k0	B17
109 % of HoCon Ab GpH7-B3/GpL16-k0	B18
65.7 % of HoCon Ab GpH7-B3/GpL16-k0	B19
5.3 % of HoCon Ab GpH7-B3/GpL16-k0	B20
37.6 % of HoCon Ab GpH7-B3/GpL16-k0	B21
81.8 % of HoCon Ab GpH7-B3/GpL16-k0	B22
168 % of HoCon Ab GpH7-B3/GpL16-k0	B23
159 % of HoCon Ab GpH7-B3/GpL16-k0	B24
80.6 % of HoCon Ab GpH7-B3/GpL16-k0	B25
104 % of HoCon Ab GpH7-B3/GpL16-k0	B26
83.1 % of HoCon Ab GpH7-B3/GpL16-k0	B27

Reference: US20150344570A1 (published 2015)
